Data: patent publication US20230414703A1 (published 2023)

B1: mouse PD-1 receptor (receptor, UniProt Q02242 25-167, looked up)
chain: LEVPNGPWRSLTFYPAWLTVSEGANATFTCSLSNWSEDLMLNWNRLSPSNQTEKQAAFCNGLSQPVQDARFQIIQLPNRHDFHMNILDTRRNDSGIYLCGAISLHPKAKIEESPGAELVVTERILETSTRYPSPSPKPEGRFQ

Key:
[1] = target: T1, soluble recombinant human PD-1 receptor (human, UniProt Q15116 25-167, limits assumed); assay: clonal phage ELISA, peptide on phage, PD-1 coated well
T1 construct: also called human PD-1 receptors
Excerpt: The TriCo-20™ (TRICO-20™) and TriCo-16™ (TRICO-16™) Phage Display Peptide Libraries (Creative Biolabs, 45-1 Ramsey Road, Shirley, NY 11967) were screened to identify binders of soluble recombinant human PD-1 receptor.

[2] = target: human PD-1 on Jurkat cells (human, UniProt Q15116 25-288); assay: cell-based or functional assay
Sequence of human PD-1 on Jurkat cells (Q15116 25-288): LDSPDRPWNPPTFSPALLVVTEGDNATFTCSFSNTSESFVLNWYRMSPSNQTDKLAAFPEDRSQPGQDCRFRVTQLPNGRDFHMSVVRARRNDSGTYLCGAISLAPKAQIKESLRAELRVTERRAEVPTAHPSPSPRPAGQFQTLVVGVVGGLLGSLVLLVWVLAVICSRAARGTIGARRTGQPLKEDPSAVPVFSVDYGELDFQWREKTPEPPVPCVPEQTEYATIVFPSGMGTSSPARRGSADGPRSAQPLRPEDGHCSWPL

[3] = target: T1, soluble recombinant human PD-1 receptor; assay: BIACORE T-200 SPR, PD-1 immobilised on CM5, steady state
Procedure: (§1) 12,000 response units (RU) of human and 6000 RU of mouse PD-1 receptors were directly immobilized on flow cell 2 and flow cell 4 of the CM5 chip by amine coupling method (EDC/NHS). The un-occupied sites were blocked with 1 M ethanol amine. […] Flow cell 1 was kept blank and used for reference subtraction. Binding of analyte to the ligand was monitored in real time.
(§2) Due to fast on rate and off rate, KD was determined by steady state equilibrium kinetics.
(§3) Chi square (χ2) analysis was carried out between the actual sensorgram and a sensorgram generated from the BIANALYSIS® software (black line) to determine the accuracy of the analysis. A χ2 value within 1-2 is considered significant (accurate) and below 1 is highly significant (highly accurate).

mouse PD-1 receptor = target: B1; assay: as above
Procedure: as §1, §2, §3

Mouse PD-L1 = Mouse PD-L1 (mouse, UniProt Q9EP73 19-239, limits assumed); assay: as above
Sequence of Mouse PD-L1 (Q9EP73 19-239 limits assumed): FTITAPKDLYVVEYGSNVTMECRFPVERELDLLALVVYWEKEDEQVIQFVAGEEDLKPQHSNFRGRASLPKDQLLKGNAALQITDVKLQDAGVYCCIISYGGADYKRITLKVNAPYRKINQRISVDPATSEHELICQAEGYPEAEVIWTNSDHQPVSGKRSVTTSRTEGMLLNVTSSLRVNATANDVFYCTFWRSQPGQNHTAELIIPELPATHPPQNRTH

T1 sequence (Q15116 25-167 limits assumed): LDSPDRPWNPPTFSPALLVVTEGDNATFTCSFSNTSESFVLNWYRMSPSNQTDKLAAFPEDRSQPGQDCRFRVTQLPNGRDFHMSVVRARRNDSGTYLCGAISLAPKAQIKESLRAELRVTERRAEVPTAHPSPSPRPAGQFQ

Binder | Clonal Phase ELISA coated signal [1] | peak-fold inhibition (luciferase reporter expression) [2] | Ka [3] | Kd [3] | Ka (mouse PD-1 receptor) | Kd (mouse PD-1 receptor) | Ka (Mouse PD-L1) | Kd (Mouse PD-L1)
HHHQVYQVRSHWTGMHSGHD (Found by phage display) [peptide HD20] | 0.281 | ~1.5 fold | 318000 M⁻¹ | 3.41 µM | 4250 M⁻¹ | 235 µM | – | –
WNLPASFHNHHIRPHEHEWIQ (also called WQ-21) [peptide WQ20] | 0.275 | ~1.5 fold | 3280 M⁻¹ | 305 µM | 1310 M⁻¹ | 761 µM | – | –
B1 | – | – | – | – | – | – | 2.75e+06 M⁻¹ | 0.364 µM
SSYHHFKMPELHFGKNTFHQ (Found by phage display) [peptide SQ20] | 0.284 | ~1.5 fold | 194000 M⁻¹ | 5.16 µM | 21400 M⁻¹ | 46.8 µM | – | –
QTRTVPMPKIHHPPWQNVVP (Found by phage display) [peptide QP20] | 0.851 | ~1.5 fold | 93600 M⁻¹ | 10.7 µM | 18000 M⁻¹ | 55.4 µM | – | –
